Data as given in patent US20110206660A1 (Ablynx, published 2011).

Tests used:
human CXCR4 [1] = target: T1, human CXCR4 (human, UniProt P61073-2 2-356); assay: competition binding vs [125I]-238D4, HEK293T-CXCR4 membranes
human CXCR4 [2] = target: T1, human CXCR4; assay: competition binding vs [125I]-CXCL12, HEK293T-CXCR4 membranes
human CXCR4 [3] = target: T1, human CXCR4; assay: competition binding vs [125I]-238D2, HEK293T-CXCR4 membranes
human CXCR4 [4] = target: T1, human CXCR4; assay: competition with [125I]-238D2, membranes of HEK293T cells expressing CXCR4
human CXCR4 [5] = target: T1, human CXCR4; assay: cell-based or functional assay
[6] = target: constitutively active CXCR4 mutant N119A (UniProt P61073 1-352); assay: cell-based or functional assay
constitutively active CXCR4 mutant N119A, sequence (P61073 whole entry N119A): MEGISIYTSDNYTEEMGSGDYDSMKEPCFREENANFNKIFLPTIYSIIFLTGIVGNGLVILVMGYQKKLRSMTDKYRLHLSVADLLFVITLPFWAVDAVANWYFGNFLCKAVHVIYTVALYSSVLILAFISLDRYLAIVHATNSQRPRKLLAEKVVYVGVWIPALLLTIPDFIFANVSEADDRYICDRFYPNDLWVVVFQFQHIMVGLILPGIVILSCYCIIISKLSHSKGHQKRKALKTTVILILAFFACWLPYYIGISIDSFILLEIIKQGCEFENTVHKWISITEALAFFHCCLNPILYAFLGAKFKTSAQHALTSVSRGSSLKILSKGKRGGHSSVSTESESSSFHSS

human CXCR4 [7] = target: T1, human CXCR4; assay: cell-based or functional assay; remark: listed apart in the source
human CXCR4 [8] = target: T1, human CXCR4; assay: competition binding vs [125I]-CXCL12, HEK293T-CXCR4 membranes
CXCR3 [9] = target: T2, CXCR3 (UniProt P49682 1-368); assay: total binding of [125I]-238D4 to membranes of HEK293T cells expressing CXCR4 or CXCR3, without (-) and with 3 µM AMD3100
T2 construct: whole, on cells; also called chemokine receptor CXCR3
T2 sequence (looked up): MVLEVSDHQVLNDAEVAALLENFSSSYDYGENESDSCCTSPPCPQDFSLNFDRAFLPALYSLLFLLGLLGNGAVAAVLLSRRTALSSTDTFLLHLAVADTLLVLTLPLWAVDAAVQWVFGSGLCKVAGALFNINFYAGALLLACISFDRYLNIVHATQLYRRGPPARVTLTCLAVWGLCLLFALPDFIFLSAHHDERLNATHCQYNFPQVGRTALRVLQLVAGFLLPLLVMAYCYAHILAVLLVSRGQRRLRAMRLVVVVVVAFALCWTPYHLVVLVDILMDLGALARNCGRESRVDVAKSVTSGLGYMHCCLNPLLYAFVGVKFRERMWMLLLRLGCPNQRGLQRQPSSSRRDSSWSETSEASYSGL

human CXCR4 [10] = target: T1, human CXCR4; assay: competition with [125I]-238D4, membranes of HEK293T cells expressing CXCR4
human CXCR4 [11] = target: T1, human CXCR4; assay: competition with [125I]-CXCL12, membranes of HEK293T cells expressing CXCR4
CXCR3 [12] = target: T2, CXCR3; assay: total binding of [125I]-238D2 to membranes of HEK293T cells expressing CXCR4 or CXCR3, without (-) and with 3 µM AMD3100
human CXCR4 [13] = target: T1, human CXCR4; assay: periplasm fraction (1:10), inhibition of [125I]-CXCL12 binding, HEK293T-CXCR4 membranes; - = 0-29%, + = 30-69%, ++ = 70-100%; periplasma fraction in the clone screen, tracer [125I]-CXCL12; 30-69% inhibition
human CXCR4 [14] = target: T1, human CXCR4; assay: competition binding vs [125I]-238D2, HEK293T-CXCR4 membranes; purified Nanobody up to 0.5 µM, tracer [125I]-238D2
human CXCR4 [15] = target: T1, human CXCR4; assay: competition binding vs [125I]-CXCL12, HEK293T-CXCR4 membranes; purified Nanobody up to 0.5 µM, tracer [125I]-CXCL12
human CXCR4 [16] = target: T1, human CXCR4; assay: competition binding vs [125I]-238D4, HEK293T-CXCR4 membranes; purified Nanobody up to 0.5 µM, tracer [125I]-238D4
human CXCR4 [17] = target: T1, human CXCR4; assay: competition binding vs [125I]-CXCL12, HEK293T-CXCR4 membranes; remark: listed apart in the source

T1 sequence (P61073 other isoform, or with tags, fused parts or gaps): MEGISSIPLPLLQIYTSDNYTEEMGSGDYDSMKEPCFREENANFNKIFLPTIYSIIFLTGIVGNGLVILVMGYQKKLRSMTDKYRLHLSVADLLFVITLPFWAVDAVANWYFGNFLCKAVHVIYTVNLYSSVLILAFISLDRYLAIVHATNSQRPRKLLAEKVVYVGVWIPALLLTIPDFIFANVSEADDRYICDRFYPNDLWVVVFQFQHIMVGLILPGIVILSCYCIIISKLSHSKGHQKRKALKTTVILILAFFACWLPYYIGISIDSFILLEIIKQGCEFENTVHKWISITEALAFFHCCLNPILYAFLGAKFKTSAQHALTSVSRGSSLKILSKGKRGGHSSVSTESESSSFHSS

Molecule monoclonal antibody 12G5 has a maximal displacement (human CXCR4 [1]) of 90%, a pKi (human CXCR4 [1]) of 9.31 and a maximal displacement (human CXCR4 [2]) of 54%. The pKi (human CXCR4 [2]) was 9.19, the maximal displacement (human CXCR4 [3]) was 89% and the pKi (human CXCR4 [3]) was 9.65.

B1: Nanobody 238D4 (VHH)
VHH: EVQLMESGGGLVQAGGSLRLSCAASGRTFNNYAMGWFRRAPGKEREFVAAITRSGVRSGVSAIYGDSVKDRFTISRDNAKNTLYLQMNSLKPEDTAVYTCAASAIGSGALRRFEYDYSGQGTQVTVSS
notes: Monovalent llama VHH; also called 238G3; 238D4, G3
For B1, the pKi (human CXCR4 [1]) was 8.55, the “IC50 (read off the curve)” value (human CXCR4 [4]) was roughly 3 nM and the “migration of Jurkat cells towards 0.3 nM CXCL12 (ChemoTx): IC50 (read off the curve)” value (human CXCR4 [5]) was roughly 8 nM. For the same molecule, the “reduction of the constitutively increased basal inositol phosphate accumulation, HEK293T-CXCR4 (N119A)” value [6] was 49%, the “CRE activation, HEK293T-CXCR4-CREbgal/0.01-100 nM CXCL12: pKi or pIC50 (pKB from the Schild plot by the text)” value (human CXCR4 [7]) was 7.7 and the “Chemotaxis, Jurkat/0.3 nM CXCL12: pKi or pIC50” value (human CXCR4 [7]) was 8.31. For the same molecule, the “IP accumulation, HEK293T-CXCR4-Gαqi5/30 nM CXCL12: pKi or pIC50” value (human CXCR4 [7]) was 8.39, the maximal displacement (human CXCR4 [8]) was 99% and the pKi (human CXCR4 [8]) was 8.22. The binding result (CXCR3 [9]) was “no binding (tested: 3 nM)”, the “IC50 (read off the curve)” value (human CXCR4 [10]) was roughly 4 nM and the pKi (human CXCR4 [3]) was 8.8. The “IC50 (read off the curve)” value (human CXCR4 [11]) was roughly 10 nM.

B2: 238D2-15GS-238D4 (VHH)
chain: EVQLVESGGGLVQTGGSLRLSCAASGFTFSSYAMSWVRQAPGKGLEWVSGIKSSGDSTRYAGSVKGRFTISRDNAKNMLYLQMYSLKPEDTAVYYCAKSRVSRTGLYTYDNRGQGTQVTVSSGGGGSGGGGSGGGGSEVQLMESGGGLVQAGGSLRLSCAASGRTFNNYAMGWFRRAPGKEREFVAAITRSGVRSGVSAIYGDSVKDRFTISRDNAKNTLYLQMNSLKPEDTAVYTCAASAIGSGALRRFEYDYSGQGTQVTVSS
With B2 the “reduction of the constitutively increased basal inositol phosphate accumulation, HEK293T-CXCR4 (N119A)” value [6] was 64%.

B3: 238D2-20GS-238D4 (VHH)
chain: EVQLVESGGGLVQTGGSLRLSCAASGFTFSSYAMSWVRQAPGKGLEWVSGIKSSGDSTRYAGSVKGRFTISRDNAKNMLYLQMYSLKPEDTAVYYCAKSRVSRTGLYTYDNRGQGTQVTVSSGGGGSGGGGSGGGGSGGGGSEVQLMESGGGLVQAGGSLRLSCAASGRTFNNYAMGWFRRAPGKEREFVAAITRSGVRSGVSAIYGDSVKDRFTISRDNAKNTLYLQMNSLKPEDTAVYTCAASAIGSGALRRFEYDYSGQGTQVTVSS
B3 was tested, and the “reduction of the constitutively increased basal inositol phosphate accumulation, HEK293T-CXCR4 (N119A)” value [6] was 65%.

B4: Nanobody 238D2 (VHH)
VHH: EVQLVESGGGLVQTGGSLRLSCAASGFTFSSYAMSWVRQAPGKGLEWVSGIKSSGDSTRYAGSVKGRFTISRDNAKNMLYLQMYSLKPEDTAVYYCAKSRVSRTGLYTYDNRGQGTQVTVSS
notes: Monovalent llama VHH; Tested as phage, as periplasm fraction and purified; also called 238C1; 238C1, D2
B4: no binding (tested: 3 nM) (CXCR3 [12]).

B5: Nanobody 237A6 (VHH)
VHH: EVQLVESGGGLVQAGGSLRLSCAASGSIFSLNAMGWYRQAPGKQRELVAGITSSTSTYYADSVKGRFTISRDNTKNTVYLQMNSLKPEDTAVYYCNVDCPDYYSDYECPLEDRGQGTQVTVSS
notes: Monovalent VHH
For B5, the “percent inhibition of specific [125I]-CXCL12 binding” value (“percent inhibition of specific” below) (human CXCR4 [13]) was 30 to 69%, the pKi (human CXCR4 [14]) was less than 6.3 and the pKi (human CXCR4 [15]) was less than 6.3. The pKi (human CXCR4 [16]) was less than 6.3.

B6: Nanobody 237D1 (VHH)
VHH: EVQLVESGGGLAQPGGPLRLTCEASGVIYSVNDMGWYRQAPGKQRELVAVITSGGGTNYVDSVKGRFTISGDNRKKTVYLQMNSLKPEDTAVYYCSIYYSSGISTLRSWGQGTQVTVSS
notes: Monovalent VHH
In the case of B6, the “percent inhibition of specific” value (human CXCR4 [13]) is reported as 30 to 69%, the pKi (human CXCR4 [14]) is reported as less than 6.3 and the pKi (human CXCR4 [15]) is reported as less than 6.3. It also gave a pKi (human CXCR4 [16]) of less than 6.3.

B7: Nanobody 237D2 (VHH)
VHH: EVQLVESGGGLVQPGGSLRLSCAASGFTFDDYAMSWVRQAPGKGLEWVSAISWNGGSTDYADSVKGRFTISRDNAKNTLYLQMNSLKSEDTAEYYCARDQGPFYSGTYYYTRQYGYRGQGTQVTVSS
notes: Monovalent VHH; also called 237B6, A5, D2, D3, E4, F4, G2, G4, xH5, 237F1, C5, G1
With B7 the pKi (human CXCR4 [14]) was less than 6.3, the pKi (human CXCR4 [15]) was less than 6.3 and the pKi (human CXCR4 [16]) was less than 6.3.

B8: Nanobody 237G7 (VHH)
VHH: EVQLVESGGGLVQPGGSLRLSCAASSFIGNYHAIVWLRQAPGKELEGVSCITSRDSITYYASFVKGRFTISRDDAKNTVYLQMNNLKPEDTAVYYCAVBTSMTCPTLIVRFNYRGQGTQVTVSS
notes: Monovalent VHH
B8 was tested, and the “percent inhibition of specific” value (human CXCR4 [13]) was 30 to 69%, the pKi (human CXCR4 [14]) was less than 6.3 and the pKi (human CXCR4 [15]) was less than 6.3. It also gave a pKi (human CXCR4 [16]) of less than 6.3.

B9: Nanobody 238C5 (VHH)
VHH: EVQLMESGGGLVQAGGSLRLACAASGFTFEDYAIGWFRKAPGKEREGVSCISGSDGSTTYADSVKGRFTISTDNAKNTVYLEMNSLKPEDTAVYYCAQQYGVGGRVVCPGPYEYDVWGQGTQVTVSS
notes: Monovalent VHH; also called 238C5, G2, xH5, 238C3, D6, E6
Work on B9 yielded a pKi (human CXCR4 [1]) of less than 7, a maximal displacement (human CXCR4 [8]) of 0% and a pKi (human CXCR4 [8]) of less than 6.3. The pKi (human CXCR4 [3]) was less than 7.

B10: 238D4-20GS-238D4 (VHH)
chain: EVQLMESGGGLVQAGGSLRLSCAASGRTFNNYAMGWFRRAPGKEREFVAAITRSGVRSGVSAIYGDSVKDRFTISRDNAKNTLYLQMNSLKPEDTAVYTCAASAIGSGALRRFEYDYSGQGTQVTVSSGGGGSGGGGSGGGGSGGGGSEVQLMESGGGLVQAGGSLRLSCAASGRTFNNYAMGWFRRAPGKEREFVAAITRSGVRSGVSAIYGDSVKDRFTISRDNAKNTLYLQMNSLKPEDTAVYTCAASAIGSGALRRFEYDYSGQGTQVTVSS
notes: Bivalent Nanobody, 20-residue GS linker; also called L13
For B10, the “Rel. potency (relative to monovalent 238D4)” value (human CXCR4 [17]) was 4.4 fold and the pKi (human CXCR4 [17]) was 8.85.
